In the supplement of paper PMC11780869:

System: Bacillus subtilis
Experiment: cleaved RNA product abundance (RNA/gDNA barcode ratio) relative to median wild-type variant (ratio to wild type); higher = more accumulation of the downstream cleavage product
In short: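 B. subtilis strains with chromosomally integrated reporter mRNAs (truncated aprE or tetM) holding barcoded, mutagenized RNase Y cleavage-site windows grew in LB at 37°C from OD600 0.0003 to 0.3. Cleaved product abundance is each construct's RNA:gDNA barcode ratio, scaled to the median construct with the unmutated site. It came from sequencing barcodes of gel-selected, reverse-transcribed cleaved RNA and of genomic DNA.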

[1] = experiment (reporter, strain, medium): exp 2b: truncated aprE reporter, strain BJT200, cleavage site: cggR-gapA (positions -7 to +36 mutated)
[2] = experiment (reporter, strain, medium): exp 4a: truncated aprE reporter, strain BJT201 with 2% xylose (RNase J1 expressed), cleavage site: cggR-gapA (positions -7 to +36 mutated)
[3] = experiment (reporter, strain, medium): exp 8a: truncated aprE reporter, strain BJT201 with 2% xylose (RNase J1 expressed), cleavage site: glnRA (positions -5 to +31 mutated)

Row | Sequence | cleaved RNA product abundance [2] | cleaved RNA product abundance [3] | also measured
1 | ACAGACGAAGGAGCCGCAAAGAACTTATTAAGGGATGAATAACCCCTCAATATAAATATCTCTCACTTATTTAAA | – | – | cleaved RNA product abundance [1]: 0.235
2 | ACAGACGAAGGAGCCGCACATAAGTTATTAAGGGATGAATAATCCCTCAATATAAATATCTCTCACTTATTTAAA | 1.07 | – | cleaved RNA product abundance [1]: 0.732
3 | CGACATGTCCCGCTTCTTTCATTAATCCGTAAGCAACTGTTTTGCTATATACATTTACGTTTTAAGAGGAGGAAT | – | 0.475 | –
4 | ACAGACGAAGGAGCCGCAACGAAGTTATTAAGGGATGAATAATCCCTCAATATAAATAACTCTCACTTATTTAAA | 0.827 | – | cleaved RNA product abundance [1]: 0.695
5 | ACAGACGAAGGAGCCGCAAAGAAGTTATTAAGTTATGAATAATCCCTCAATATAAATAACTCTCACTTATTTAAA | 0.117 | – | –
6 | CGACATGTCCCGCTTCTTTCATTAATCCGTTAGCAACTGTTTTTGCTATATACATTTACCTTTTAAGAGGAGGAA | – | 0.946 | –
7 | CGACATGTCCCGCTTCTTTCATTAATCCGTTAGCAACTGTTTAGCTATATATATTTACCTTTTAAGAGGAGGAAT | – | 0.416 | –
8 | CGACATGTCCCGCTTCTTTCATTAATCCGTTAGCAACTGTGTAGCTATATACATTTACCTTTTAAGAGGAGGAAT | – | 0.23 | –
9 | ACAGACGAAGGAGCCGCAAAGAAGTTATTAAAGGATGAATAATCCCTCATTATAAATATCTCTCACTTATTTAAA | 0.245 | – | –
10 | ACAGACGAAGGAGCCGCAAAGAAATTATTAAGGGATAAATAATCCATCAATATAAATATCTCTCACTTATTTAAA | 0.216 | – | –
11 | CGACATGTCCCGCTTCTTTCATTAATCCGTTAACAATTGTTTTGCTATATACATTTACCTTTTAAGAGGAGGAAT | – | 0.241 | –
12 | ACAGACGAAGGAGCCGCAAAGAAGTTATTAAGTGATGAATAATCCCTCTATATAAATATCTCTCACTTATTTAAA | 0.128 | – | cleaved RNA product abundance [1]: 0.109
13 | CGACATGTCCCGCTTCTTTCATTAATTCGTTAACAACTGTTTTGCTATATACATTTACCTTTTAAGAGGAGGAAT | – | 0.209 | –
14 | CGACATGTCCCGCTTCTTTCATTATTCCGTTAGCAACTGTCTTGCTATATACATTTACCTTTTAAGAGGAGGAAT | – | 1.31 | –
15 | ACAGACGAAGGAGCCGCAAAGAAGTTATTACGGGATGAATAAACCCTCAATATAAATATCTCTCACTTATTTAAA | 0.158 | – | –
16 | ACAGACGAAGGAGCCGCAAAGAAGTTATTAAGGGCTGAACAATCCCTCAATATAAATATCTCTCACTTATTTAAA | 0.156 | – | –
17 | ACAGACGAAGGAGCCGCAAAAAAGTTATTAAGGGATAAATAATCCCTCAATATAAATATCTCTCACTTATTTAAA | 0.86 | – | cleaved RNA product abundance [1]: 0.8
18 | ACAGACGAAGGAGCCGCAAAGAAGTTATTACGGGTTGAATAATCCCTCAATATAAATATCTCTCACTTATTTAAA | 0.16 | – | cleaved RNA product abundance [1]: 0.087
19 | ACAGACGAAGGAGCCGCAAAGAAGTTATTAAGGGATGTATAATCCCTCAATATAAAAATCTCTCACTTATTTAAA | 0.439 | – | –
20 | ACAGACGAAGGAGCCGCAAAGAAGTTATTAAGGGAATGAATAATCCCTCAATATAAATATCTCTCACTTATTTAA | 0.604 | – | –
21 | ACAGACGAAGGAGCCGCAAAGAAGTTATTAAGGGAAGAATAATCCCTCAATATAAATAACTCTCACTTATTTAAA | 0.434 | – | –

Row | Sequence | cleaved RNA product abundance [2] | cleaved RNA product abundance [3] | also measured
22 | ACAGACGAAGGAGCCGCAAAGAAACTATTAAGGGATGAATAATCCCTCAATATAAATATCTCTCACTTATTTAAA | 0.557 | – | cleaved RNA product abundance [1]: 0.644
23 | ACAGACGAAGGAGCCGCAAAGAAGTTAATAAGGGATGAATAATCCCTCAAAATAAATATCTCTCACTTATTTAAA | 0.25 | – | –
24 | ACAGACGAAGGAGCCGCAAAGAAATTATTAAGGGATGAATAATCCCTCAATATAGATATCTCTCACTTATTTAAA | 0.474 | – | –
25 | CGACATGTCCCGCTTCTTTCATTAATTCGTTTGCAACTGTTTTGCTATATACATTTACCTTTTAAGAGGAGGAAT | – | 0.815 | –
26 | ACAGACGAAGGAGCCGCAAAGAAGTTATTAAGGTATGAATAATCTCTCAATATAAATATCTCTCACTTATTTAAA | 0.162 | – | –
27 | CGACATGTCCCGCTTCTTTCATTAATTCGTTAGCAACTGTTTTGCTATATACATATACCTTTTAAGAGGAGGAAT | – | 0.859 | –
28 | CGACATGTCCCGCTTCTTTCATTAACCCGTTAGCAACTGTTTTGCTATATACATTTACCTTTTAAGAGGAGGAAT | – | 0.819 | –
29 | CGACATGTCCCGCTTCTTTCATTAATCCGTAAGCAACTGTTTTGCTATATACAATTACCTTTTAAGAGGAGGAAT | – | 0.478 | –
30 | CGACATGTCCCGCTTCTTTCATTAATTCGTTAGCAACTGTTTTGCTATATACATTTACCCTTTAAGAGGAGGAAT | – | 0.564 | –
31 | ACAGACGAAGGAGCCGCAAAGAATTTATTAAGGGATGAATAAACCCTCAATATAAATATCTCTCACTTATTTAAA | 0.292 | – | cleaved RNA product abundance [1]: 0.322
32 | ACAGACGAAGGAGCCGCAAAGAAGTTATTAAGGGATGAATGATCCCTCAATCTAAATATCTCTCACTTATTTAAA | 0.0934 | – | –
33 | CGACATGTCCCGCTTCTTTCATTAATCCGTTATCAACTGTTTTGCTATACACATTTACCTTTTAAGAGGAGGAAT | – | 0.27 | –
34 | ACAGACGAAGGAGCCGCAAAGAAGTTATTATGGGATGAATAAACCCTCAATATAAATATCTCTCACTTATTTAAA | 0.21 | – | –
35 | ACAGACGAAGGAGCCGCAAAGAAGTTATTAAGGGATGAATAATCCATCAATATAAATATTTCTCACTTATTTAAA | 0.286 | – | –
36 | ACAGACGAAGGAGCCGCAAAGAAGTTATTAATGGATGAATAATCCCTCAATATAAATGTCTCTCACTTATTTAAA | 0.194 | – | cleaved RNA product abundance [1]: 0.107
37 | ACAGACGAAGGAGCCGCAAAGAAGTTATTAAGGGATGAATAATCGCACAATATAAATATCTCTCACTTATTTAAA | 0.0643 | – | –
38 | ACAGACGAAGGAGCCGCAAAGAAGTTATTAAGGGATGAATATTCCCTCAATAAAAATATCTCTCACTTATTTAAA | 0.156 | – | –
39 | CGACATGTCCCGCTTCTTTCATTAATCCGTTGGCAACTGTTTTGCTATAAACATTTACCTTTTAAGAGGAGGAAT | – | 0.509 | –
40 | ACAGACGAAGGAGCCGCAAAGAAGTTTTTAAGGGATCAATAATCCCTCAATATAAATATCTCTCACTTATTTAAA | 0.289 | – | –
41 | ACAGACGAAGGAGCCGCAAAGAAGATATTAAAGGATGAATAATCCCTCAATATAAATATCTCTCACTTATTTAAA | 0.264 | – | cleaved RNA product abundance [1]: 0.199
42 | CGACATGTCCCGCTTCTTTCATTAATCCGTTAGCAACTGTTTTGCTATATATATTTACTTTTTAAGAGGAGGAAT | – | 1.89 | –

Row | Sequence | cleaved RNA product abundance [2] | cleaved RNA product abundance [3] | also measured
43 | ACAGACGAAGGAGCCGCAAAGAAGTTATTAAGGAATGAATAATCCCTCAATATATATATCTCTCACTTATTTAAA | 0.149 | – | cleaved RNA product abundance [1]: 0.0862
44 | CGACATGTCCCGCTTCTTTCATTAATCCGTTAGCAACTTTTGTGCTATATACATTTACCTTTTAAGAGGAGGAAT | – | 1.05 | –
45 | ACAGACGAAGGAGCCGCAAAGAAGCTATTAAGGGATGAATAATCCCTCAATTTAAATATCTCTCACTTATTTAAA | 0.0606 | – | –
46 | ACAGACGAAGGAGCCGCAAAGAAGTTATTAAGGGATAAATAATCCCTCAATATAAATATCTCTCACTTATTTAAA | 0.872 | – | cleaved RNA product abundance [1]: 0.898; cleaved RNA product abundance (experiment (reporter, strain, medium): exp 6: tetM reporter, strain 168, cleavage site: cggR-gapA (positions -7 to +36 mutated)): 0.954
47 | ACAGACGAAGGAGCCGCAAAGAAGTTATTAAGGGATGAATAATCCAACAATATAAATATCTCTCACTTATTTAAA | 0.174 | – | cleaved RNA product abundance [1]: 0.184
48 | ACAGACGAAGGAGCCGCAAAGAAGTTATTAAGGGATGACTAATACCTCAATATAAATATCTCTCACTTATTTAAA | 0.0872 | – | –
49 | CGACATGTCCCGCTTCTTTCATTACTGCGTTAGCAACTGTTTTGCTATATACATTTACCTTTTAAGAGGAGGAAT | – | 1.68 | –
50 | ACAGACGAAGGAGCCGCAAAGAAGTTATTAAGCGATTAATAATCCCTCAACATAAATATCTCTCACTTATTTAAA | 0.0653 | – | –
51 | ACAGACGAAGGAGCCGCAAAGAAGTTAATAAGGGATGAATAAACCCTCAATATAAATATCTCTCACTTATTTAAA | 0.177 | – | cleaved RNA product abundance [1]: 0.167
52 | ACAGACGAAGGAGCCGCAAAGAAGTTATTAAGGGATGAATAAACCCTAAATATAAATATCTCTCACTTATTTAAA | 0.4 | – | –
53 | ACAGACGAAGGAGCCGCAAAGAAGTTATTAAGGGATGAATAATACCTGAATATAAATATCTCTCACTTATTTAAA | 0.107 | – | cleaved RNA product abundance [1]: 0.093
54 | ACAGACGAAGGAGCCGCAAAGAAGTTATTAAGGGATGAAGAATCCCTCAATATCAATATCTCTCACTTATTTAAA | 0.0586 | – | –
55 | ACAGACGAAGGAGCCGCAAAGAAGTTATTGCGGGATGAATAATCCCTCAATATAAATATCTCTCACTTATTTAAA | 0.869 | – | –
56 | ACAGACGAAGGAGCCGCAAAGAAGTTATTAAGGGATGAATAATCCCTCTATATAAACATCTCTCACTTATTTAAA | – | – | cleaved RNA product abundance [1]: 0.362
57 | ACAGACGAAGGAGCCGCAAAGAAGTTATTAAGGGATGAATATTCCCTAAATATAAATATCTCTCACTTATTTAAA | 0.462 | – | –
58 | CGACATGTCCCGCTTCTTTCATTAATACGTTAGTAACTGTTTTGCTATATACATTTACCTTTTAAGAGGAGGAAT | – | 0.334 | –
59 | CGACATGTCCCGCTTCTTTCATTATTCCGTTAGCAACTGTTTTGCTATATACAATTACCTTTTAAGAGGAGGAAT | – | 1.31 | –
60 | CGACATGTCCCGCTTCTTTCATTAATCCGTTAGCAACTGTATTGCTATATACATGTACCTTTTAAGAGGAGGAAT | – | 0.783 | –
61 | CGACATGTCCCGCTTCTTTCATTAATCCGTTAGAAACTGTTTTGATATATACATTTACCTTTTAAGAGGAGGAAT | – | 0.221 | –
